The results in this text go back to ChEMBL document CHEMBL2074234, “Functional expression of the canalicular bile salt export pump of human liver” (Gastroenterology, 2002).

Holding throughout (format): functional, cell membranes, Membrane vesicle
Substrate in data set [1]: C[C@H](CCC(=O)NCCS(=O)(=O)O)[C@H]1CC[C@H]2[C@@H]3[C@@H](O)C[C@@H]4C[C@H](O)CC[C@]4(C)[C@H]3CC[C@]12C
The experiment in a line: (§1) TP_TRANSPORTER: uptake in membrane vesicles isolated from Bsep-expressing Sf9 cells.

Substrate in data set [2]: C[C@H](CCC(=O)NCC(=O)O)[C@H]1CC[C@H]2[C@@H]3[C@H](O)C[C@@H]4C[C@H](O)CC[C@]4(C)[C@H]3C[C@H](O)[C@]12C
The data set is described as §1.

Substrate in data set [3]: C[C@H](CCC(=O)NCCS(=O)(=O)O)[C@H]1CC[C@H]2[C@@H]3[C@H](O)C[C@@H]4C[C@H](O)CC[C@]4(C)[C@H]3CC[C@]12C
The description is as §1.

B1: Bile salt export pump (Homo sapiens) (protein)
chain: MSDSVILRSIKKFGEENDGFESDKSYNNDKKSRLQDEKKGDGVRVGFFQLFRFSSSTDIWLMFVGSLCAFLHGIAQPGVLLIFGTMTDVFIDYDVELQELQIPGKACVNNTIVWTNSSLNQNMTNGTRCGLLNIESEMIKFASYYAGIAVAVLITGYIQICFWVIAAARQIQKMRKFYFRRIMRMEIGWFDCNSVGELNTRFSDDINKINDAIADQMALFIQRMTSTICGFLLGFFRGWKLTLVIISVSPLIGIGAATIGLSVSKFTDYELKAYAKAGVVADEVISSMRTVAAFGGEKREVERYEKNLVFAQRWGIRKGIVMGFFTGFVWCLIFLCYALAFWYGSTLVLDEGEYTPGTLVQIFLSVIVGALNLGNASPCLEAFATGRAAATSIFETIDRKPIIDCMSEDGYKLDRIKGEIEFHNVTFHYPSRPEVKILNDLNMVIKPGEMTALVGPSGAGKSTALQLIQRFYDPCEGMVTVDGHDIRSLNIQWLRDQIGIVEQEPVLFSTTIAENIRYGREDATMEDIVQAAKEANAYNFIMDLPQQFDTLVGEGGGQMSGGQKQRVAIARALIRNPKILLLDMATSALDNESEAMVQEVLSKIQHGHTIISVAHRLSTVRAADTIIGFEHGTAVERGTHEELLERKGVYFTLVTLQSQGNQALNEEDIKDATEDDMLARTFSRGSYQDSLRASIRQRSKSQLSYLVHEPPLAVVDHKSTYEEDRKDKDIPVQEEVEPAPVRRILKFSAPEWPYMLVGSVGAAVNGTVTPLYAFLFSQILGTFSIPDKEEQRSQINGVCLLFVAMGCVSLFTQFLQGYAFAKSGELLTKRLRKFGFRAMLGQDIAWFDDLRNSPGALTTRLATDASQVQGAAGSQIGMIVNSFTNVTVAMIIAFSFSWKLSLVILCFFPFLALSGATQTRMLTGFASRDKQALEMVGQITNEALSNIRTVAGIGKERRFIEALETELEKPFKTAIQKANIYGFCFAFAQCIMFIANSASYRYGGYLISNEGLHFSYVFRVISAVVLSATALGRAFSYTPSYAKAKISAARFFQLLDRQPPISVYNTAGEKWDNFQGKIDFVDCKFTYPSRPDSQVLNGLSVSISPGQTLAFVGSSGCGKSTSIQLLERFYDPDQGKVMIDGHDSKKVNVQFLRSNIGIVSQEPVLFACSIMDNIKYGDNTKEIPMERVIAAAKQAQLHDFVMSLPEKYETNVGSQGSQLSRGEKQRIAIARAIVRDPKILLLDEATSALDTESEKTVQVALDKAREGRTCIVIAHRLSTIQNADIIAVMAQGVVIEKGTHEELMAQKGAYYKLVTTGSPIS
Regarding B1, the Km – broadly, the concentration of substrate that gives half-maximal velocity – is 11.9 µM in data set [1], 11.1 µM in data set [2] and 4.8 µM in data set [3].
